Data published in patent publication US20230059181A1.

Target: Human CD64 (FcγRI), His-tagged (human) (UniProt P12314)
Assay: SPR single cycle kinetics, 1:1 model, His-CD64 captured, antibody as analyte

Human CD64 (FcγRI), His-tagged (human), sequence (P12314 16-288 limits assumed): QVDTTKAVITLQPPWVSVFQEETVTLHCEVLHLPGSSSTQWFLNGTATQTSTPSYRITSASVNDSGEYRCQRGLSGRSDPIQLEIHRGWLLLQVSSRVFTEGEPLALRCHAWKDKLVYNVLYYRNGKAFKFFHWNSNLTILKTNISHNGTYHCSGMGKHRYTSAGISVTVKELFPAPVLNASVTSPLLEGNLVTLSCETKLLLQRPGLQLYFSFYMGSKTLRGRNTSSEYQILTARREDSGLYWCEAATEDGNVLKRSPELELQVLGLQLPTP

Row | Kd [nM] | koff [s⁻¹] | kon [M⁻¹ s⁻¹] | Substance
1 | 2.61 | 0.00083 | 319000 | Irrelevant IgG1 (antibody)
2 | 5.97 | 0.00249 | 417000 | Irrelevant IgG4 (antibody)
